The nature of this data set: soluble on expression in E. coli; label from the status in PepcDB or PDB records.
Turning to “TVLPKDIPGDSLKVTVGTANGKPGDTVTVPVTFADVAKMKNVGTCNFYLGYDASLLEVVSVDAGPIVKNAAVNFSSSASNGTISFLFLDNTITDELITADGVFANIKFKLKSVTAKTTTPVTFKDGGAFGDGTMSKIASVTKTNGSVTIDP”, the “soluble on expression in E. coli” value is “soluble”.

As for “MSLSNWPYPRIVAHRGGGKLAPENTLASIDVGAKYGHKMIEFDAKLSKDGEIFLLHDDNLERTSNGWGVAGELNWQDLLRVDAGSWYSKMFKGEPLPLLSQVAERCREHGMMANIEIKPTTGTGPLTGKMVALAARELWAGMTPPLLSSFEIDALEAAQQAAPELPRGLLLDEWRDDWRELTARLGCVSIHLNHKLLNKARVMQLKDAGLRILVYTVNKPQRAAELLRWGVDCICTDAIDVIGPNFTAQEGHHHHHH”, the “soluble on expression in E. coli” value is on record as “soluble”.

“MDLMAYWLCITNEDNWKVIKEKKIWGVAERYKNTINKVKVGDKLIIYEIQRSGKDYKPPYIRGVYEVVSEVYKDSSKIFKPTPRNPNEKFPYRVKLKEIKVFEPPINFKELIPKLKFITNKKRWSGHLMGKAMREIPEEDYKLIVGN”: the “soluble on expression in E. coli” value is recorded as “soluble”.

As to “GMSSSDRYMQRGVSSQKEDVHKAIKSIDKGIYPRAFCKIIPDILGGDPEYCNIMHADGAGTKSSLAYVYWKETGDISVWKGIAQDAVIMNIDDLICVGAVDNILLSSTIGRNKNLIPGEVLAAIINGTEEVLQMLRDNGIGIYSTGGETADVGDLVRTIIVDSTVTCRMKRQDVISNENIKAGNVIVGFASYGQTSYETEYNGGMGSNGLTSARHDVFNNVLASKYPESFDPKVPENLVYSGEMNLTDPYLNVPLDAGKLVLSPTRTYAPLMKEIIHQYKGKLDGVVHCSGGGQTKVLHFTDATTHIIKDNLFDVPPLFQLIQGQSNTPWEEMYKVFNMGHRLEIYTDAAHAEGMIAIAKKFNIEAKIIGRVEAPVAGKRLTITGPQGTEYTYA”, the “soluble on expression in E. coli” value was “soluble”.

With “MGSDKIHHHHHHMSTSAIDPVSFSLYAKDFTRFAQELGASFERYGFAVLSDYDLDQARIDAAVDSAKAFFALPVETKKQYAGVKGGARGYIPFGVETAKGADHYDLKEFWHMGRDLPPGHRFRAHMADNVWPAEIPAFKHDVSWLYNSLDGMGGKVLEAIATYLKLERDFFKPTVQDGNSVLRLLHYPPIPKDATGVRAGAHGDINTITLLLGAEEGGLEVLDRDGQWLPINPPPGCLVINIGDMLERLTNNVLPSTVHRVVNPPPERRGVPRYSTPFFLHFASDYEIKTLQNCVTAENPDRYPESITADEFLQQRLREIKLA”, the “soluble on expression in E. coli” value is “not soluble”.

Turning to “MLSEERVKELLKKLKDLKILVVGDVILDTYLYGNVERISPEAPVPVLEVEGEEFRLGGAGNVAKNLSSLGVETYLCGVVGKDEAGKRLRELIEGNSIRSFLIEDERPTTKKTRVVSRNQQLLRIDWEDRSYISGKALEKILDVIKNLQVDGIIVSDYAKGVITEEVIKTIREKGVFYSVDPRPKHRELYRKAYLMTPNEKELREMSKFEGSVEELGKKLKEELELETLIVTRGEKGMSLFTEKGVKHFPARARKVYDVTGAGDTVIASITAFKLAGATWEECCELGNVCGGIVVGEFGTATVTPEKLLKAVKLNS”, the “soluble on expression in E. coli” value is recorded as “not soluble”.

Regarding “MSLKGYPFLDKANAPFVDRHVTKAGEIFYPWDGKRIDGFGLIGAPLSKSSISHSGASFAPTVIRKCLHAFSTYSVEEDLDLAQLKLTDLGDITMHVTDIVGSQARIEETMTKLLENEQNWQPIVLGGDHSISFPSIKAFASAKGTIGVIQFDAHHDLRNLEDGGPCNGTPFRSLLETGSLVGEHLVQIGIRDFSNSYPYRKYAEKHGVKVYTMKDVNARGLLTILDEAVAKLKRSVDVIYVSVDMDVLDQAHAPGCPAIGPGGMDSTTLLQGIFHLGKDSLVQGMDIVEVDPTLDFREMTSRAAAHVILNYLKGKCIKSEGHHHHHH”, the “soluble on expression in E. coli” value was “soluble”.

Turning to “PQSAVLHYSGSYGIPATMTFERSGNAYKIVSTIKVPLYNIRFESGGTVVGNTLHPTYYRDIRRGKLYAEAKFADGSVTYGKAGESKTEQSPKAMDLFTLAWQLAANDAKLPPGLKITNGKKLYSVGGLNKAGTGKYSIGGVETEVVKYRVRRGDDAV”, the “soluble on expression in E. coli” value is given as “not soluble”.

In the case of “SYSSAFAQAASSSLATSSAISRAFASVSSASAASSLAYNIGLSAARSLGIASDTALAGALAQAVGGVGAGASASAYANAIARAAGQFLATQGVLNAVNASSLGSALANALSDSAANSAVSGNYLGVSQN”, the “soluble on expression in E. coli” value was “soluble”.

As to “MENYLIDNLDRGILEALMGNARTAYAELAKQFGVSPETIHVRVEKMKQAGIITGARIDVSPKQLGYDVGCFIGIILKSAKDYPSALAKLESLDEVTEAYYTTGHYSIFIKVMCRSIDALQHVLINKIQTIDEIQSTETLIVLQNPIMRTIKP”, the “soluble on expression in E. coli” value is reported as “soluble”.

Consider “MDAAVIVPAYNEAESLARCLAPFESQPVELVVVVGGDDGTEQVARDTPFVDTVVRCDEGGAGIARNRGAAAATAPILLFTDADTVVPEDWVRLHLRHYADDEVIGVGGPARPLEDSLKHRVLFKLLSDYWYRVSWPLGFVQQPGFNCSFRADAFKAAGGFNEDIPFMEDTELSLRMKDYGRIVYDADSCVATSARREADEGYVSLFAKYVRGYANHYILRREFDADYFLEHHHHHH”, for which the “soluble on expression in E. coli” value is “not soluble”.

Take “MTPEIKVKSMRSVGTQVDVQCITYGLAGFDSVFKHCGVFSGEEHNVSSIWKGPVRMVERKTETESFEISQYGETVFKPSLQLLVGTSDEIAFSLLRHVFSKMDIIELRHYLQVLGFEKTFNLMYNLGEEFIEGEIPVDERILLDEIEALESFTVSNMTIEEEIEARRVERLALKFVEEMYNPDTENDEQIALLLHSEMNDENGDNDLIEEDYFNIANLEESFPGTNKKVVREAYNIAGRKVDFTREILLSNGEVENTYAVKLKPKPTWSKKVASSPSPLRLSLPKKSKKEEENHFLKKRSGRHSQLEEIQLLAIRTRQKIEADRITSSNSMAAAKYRQLIIVDRASRMKIEKSSEVKELDRKIREAHNNPWFLDLHYMSVDGAVKLVKEAIEAVKYHLKAARNLDRRITVVTGSGNNSKCGAKIKPQVLAMLQHNDYNYELVNDGCIRFKV”: the “soluble on expression in E. coli” value is recorded as “not soluble”.

For “MGSDKIHHHHHHMMRGAPMTLRPRLICLPPAGAGPSLFRSWVQNSESIFDVVPVALPGREAHFTKPLPRDIQSLADHVTNEIIGLLQAPYALFGYSMGAVVAYELLRHLSLRRLPLPDAFYILGSNAPDRVLEGREPIHSMTSEDFQQSLVEIGGTPDEILRDREAMALFEPVLRNDFRICETYEFTPPHLPVTFPVHVFVADADHLVSWKAAGAWENCIGQDITMHGIEGSHMLPPQAFAHFIGKLGQLWQTDQVQACAVSTRTA”, the “soluble on expression in E. coli” value is recorded as “not soluble”.

In the case of “MSLDAHAQSYYRDCYRGAANMVRAMQKRANTLLSAGQTIADRQHKFIRSGRLRDKQPLTMTLIAQEAGLNKSTISRALSNCRIRLDSGIFPAEHFLARPLSDDTPDRTRDQVLQRLRLLIETENPRSPMSDQVLARQLGKARLSISRRTVAKYRQFLQIPGAYERKRNTEGHHHHHH”, the “soluble on expression in E. coli” value is listed as “not soluble”.

In the case of “MVFPSEQEQIEKFEKDHVAQHYFEVLRTLISKKSVFAQQVGLKEVANYLGEIFKRVGAEVEIDESYTAPFVMAHFKSSRPDAKTLIFYNHYDTVPADGDQVWTEDPFTLSVRNGFMYGRGVDDDKGHITARLSALRKYMQHHDDLPVNISFIMEGAEESASTDLDKYLEKHADKLRGADLLVWEQGTKNALEQLEISGGNKGIVTFDAKVKSADVDIHSSYGGVVESAPWYLLQALQSLRAADGRILVEGLYEEVQEPNEREMALLETYGQRNPEEVSRIYGLELPLLQEERMAFLKRFFFDPALNIEGIQSGYQGQGVKTILPAEASAKLEVRLVPGLEPHDVLEKIRKQLDKNGFDKVELYYTLGEMSYRSDMSAPAILNVIELAKKFYPQGVSVLPTTAGTGPMHTVFDALEVPMVAFGLGNANSRDHGGDENVRIADYYTHIELVEELIRSYE”, the “soluble on expression in E. coli” value was “soluble”.

With “MTLTSDDLRQIAALTLAHYDDNAVSFEVGTRDHDVSQNIAALLRHIQGDPPYAILDFGCGPGRDLKTFAALGHAAVGLDGAAHFVAMAHQATGCEVWQQDFLRLALPAGRFDGIFANASLFHVPTQELPRVLGELRDTLKPGGVLFCSNPRGGNEEGWSRGRYGVWHDWESWRALLEAAGFQALEHYYRPAGLPREQQQWLASVWRRLEHHHHHH”, the “soluble on expression in E. coli” value is reported as “soluble”.

“MGSDKIHHHHHHMTRSEAQGRLTGLAPVSVIDIGSNSVRLVVYEGLSRAPAVLFNEKVLCGLGKGLALTGRMHEEGVTRALMALRRFHVLSEQAQAQKLYVLATAAAREAENGPDFIREAEAILGCEIEVLSGEKEALYSAYGVISGFYQPDGIAGDLGGGSLELIDIKDKSCGEGITLPLGGLRLSEQSDGSLEKAATIARKHVKSFAKLLAAGEGRTFYAVGGTWRNIAKLHMEISGYPLHMMQGYELPLEEMLNFLEEVIVSRDSKDPAWQAVSKNRRSLLPFGAIAMREVLRAMKPAKIAFSAQGVREGYLYSLLTEAERESDPLLVAADELAILRARSPEHARELADWSGRTFPVFGIDETEEESRYRQAACLLADISWRAHPDYRGLQALNIIAHSSFVAITHPGRAYIALANYYRFEGLNDNGTTEPLAAMAGERLQELGKLLGGLLRVVYLFSASMPGVVDHLKFRKSDNPDIDLEFVVPHDYCDFAGERLDGRLQQLAKLTGKRLAFVFE”: the “soluble on expression in E. coli” value is “not soluble”.

Consider “MDIRKFFGVIPSGKKLVSETVKKNEKTKSDEETLKAKKGIKEIKVNSSRKEDDFKQKQPSKKKRIIYDSDSESEETLQVKNAKKPPEKLPVSSKPGKISRQDPVTYISETDEEDDFMCKKAASKSKENGRSTNSHLGTSNMKKNEENTKTKNKPLSPIKLTPTSVLDYFGTGSVQRSNKKMVASKRKELSQNTDESGLNDEAIAKQLQLDEDAELERQLHEDEEFARTLAMLDEEPKTKKARKDTEAGETFSSVQANLSKAEKHKYPHKVKTAQVSDERKSYSPRKQSKYESSKESQQHSKSSADKIGEVSSPKASSKLAIMKRKEESSYKEIEPVASKRKENAIKLKGETKTPKKTKSSPAKKESVSPEDSEKKRTNYQAYRSYLNREGPKALGSKEIPKGAENCLEGLIFVITGVLESIERDEAKSLIERYGGKVTGNVSKKTNYLVMGRDSGQSKSDKAAALGTKIIDEDGLLNLIRTMPGKKSKYEIAVETEMKKESKLERTPQKNVQGKRKISPSKKESESKKSRPTSKRDSLAKTIKKETDVFWKSLDFKEQVAEETSGDSKARNLADDSSENKVENLLWVDKYKPTSLKTIIGQQGDQSCANKLLRWLRNWQKSSSEDKKHAKFGKFSGKDDGSSFKAALLSGPPGVGKTTTASLVCQELGYSYVELNASDTRSKSSLKAIVAESLNNTSIKGFYSNGAASSVSTKHALIMDEVDGMAGNEDRGGIQELIGLIKHTKIPIICMCNDRNHPKIRSLVHYCFDLRFQRPRVEQIKGAMMSIAFKEGLKIPPPAMNEIILGANQDIRQVLHNLSMWCARSKALTYDQAKADSHRAKKDIKMGPFDVARKVFAAGEETAHMSLVDKSDLFFHDYSIAPLFVQENYIHVKPVAAGGDMKKHLMLLSRAADSICDGDLVDSQIRSKQNWSLLPAQAIYASVLPGELMRGYMTQFPTFPSWLGKHSSTGKHDRIVQDLALHMSLRTYSSKRTVNMDYLSLLRDALVQPLTSQGVDGVQDVVALMDTYYLMKEDFENIMEISSWGGKPSPFSKLDPKVKAAFTRAYNKEAHLTPYSLQAIKASRHSTSPSLDSEYNEELNEDDSQSDEKDQDAIETDAMIKKKTKSSKPSKPEKDKEPRKGKGKSSKK”, for which the “soluble on expression in E. coli” value is listed as “soluble”.

Take “SKKVIGKKRAHAEDDELDPMDPSSYSDAPRGGWVVGLKGVQPRAADTTASGPLFQQRPYPSPGAVLRRNAEVASSQKKKPNSQFTEITKRGDGSDGLGDAD”: the “soluble on expression in E. coli” value was “soluble”.

Take “AIAEEWDVPQMKKEVESLKYQLAFQREMASKTIPELLKWIEDGIPKDPFLNPDLMKNNPWVEKGKCTIL”: the “soluble on expression in E. coli” value is “soluble”.

Values taken from the DeepSol protein solubility set.
